Reference: publication PMC3970802

Biological target: TLND2AXH, ataxin-1 residues 410-561, recombinant protein for size exclusion chromatography
Assay: SEC; analytical, Superdex-75 10/300 GL, 20 mM Tris-HCl pH 7, 150 mM NaCl, 1 mM TCEP; 200 ul of 150 uM protein incubated 24 h at 37 °C, each injected separately; 0.8 ml/min; dimer to monomers

## TLND2AXH, ataxin-1 residues 410-561, recombinant protein for size exclusion chromatography (domain or fragment)
  stoichiometry N: 2
